Tested on: MS2 coat protein
Assay: apparent KD of MS2 coat protein; designed switch direction (-1 OFF switch, 1 ON switch): -1; higher = weaker reporter binding
Outline: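 Designed RNA switches with common flanks were transcribed on Illumina chips by stalled E. coli RNA polymerase and titrated with SNAP-549-labelled MS2 coat protein, from 0.7 or 1.5 nM doubling to 3 µM, in Tris-HCl pH 7.5 buffer with KCl, MgCl2, BSA, DTT, tRNA and Tween-20. Steps lasted 0.8–1.5 h (lowest) to 10–20 min (highest). Titrations ran without input, with 200 uM small-molecule ligand, or with an oligonucleotide input. Normalised cluster fluorescence was curve-fitted, and apparent KD is the per-design median over clusters.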

[1] = Eterna round: R95, input ligand: FMN 200 uM
[2] = Eterna round: R95, input ligand: microRNA oligo, concentration not stated
[3] = Eterna round: R95, input ligand: none
[4] = input ligand: microRNA oligo, concentration not stated

Row | Sequence | apparent KD of MS2 coat protein [1] [nM] | apparent KD of MS2 coat protein [2] [nM] | apparent KD of MS2 coat protein [3] [nM] | apparent KD of MS2 coat protein (input ligand: FMN 200 uM) [nM] | apparent KD of MS2 coat protein (input ligand: none) [nM] | apparent KD of MS2 coat protein [4] [nM]
1 | CCAUCGUGUGUGAGGAUAUGCUGGACCUUGGUUCAGCAGAAGGCACAUGAGGAUCACCCAUGUGAAGACGGUGG [Mat - Exclusion 4 - JL Mod - D89] (puzzle: Brourd's mod of Exclusion 4) | 51.4 | 24.6 | 18.1 |  |  | 
2 | GCAUCUCAUGUCAGGAUAUGCUGUACCUUGGUACAGCAGAAGGGACAUGAGGAUCACCCAUGUGCCUAAGAUGC [JL-BMX4-4.12] (Eterna round: R97, puzzle: Brourd's mod of Exclusion 4) |  |  |  | 1270 | 254 | 
3 | AGUGUGUGGCAGGAUAUUCUAAUGAUUAGGACAGAAGAAGGGUCUACAUGAGGAUCACCCAUGUAAGCGGUUGA [Ex6 #38] (Eterna round: R97, puzzle: Exclusion 6) |  |  |  | 211 | 82.3 | 
4 | GAAAACGCAGAGGAUAUAUCAGAUCAAAGCUGCAUAGAAGGCUGCACAUGAGGAUCACCCAUGUGGUCUUUAAA [jl-ex6-4.00 ViennaUCT mod] (Eterna round: R97, puzzle: Exclusion 6) |  |  |  | 218 | 22 | 
5 | AAAUUUGGAGGAUAUUCAUUGGGAAACAUGAGGAUCACCCAUGUGAUAUAAGGGAAAUCCGGAGAAGGCUAAAUUU [-17.1, -14.1 kcal, 37% A] (Eterna round: R97, puzzle: Exclusion 5) |  |  |  | 30.7 | 28.2 | 
6 | GGCCCUAAGGUCAGAUUCACAAGCUUUUUGCUCGUUUUAACAUGAGGAUCACCCAUGUCUAGUGGAUCUGAUCCUCA [Sensor v3, turn-off variant 2 (MOD of Indiso v.2)] (puzzle: Sensor v3, turn-off variant 2) | 21.6 | 11.8 | 20.1 |  |  | 
7 | AUAAUAUAUGUAGGAUAUCUGCACGUUUAGUGCAGAGAAGGACAUGAGGAUCACCCAUGUAAUUAAGAUCAAUUAUUAAAUUAU [ENG1/4-B2] (Eterna round: R96, puzzle: Exclusion NG 1) |  |  |  | 59.5 | 40.8 | 29.5
8 | CUGUAGCUACAAGCUUUUUGCACGUCAGGUAGUGACGCAACAUGAGGAUCACCCAUGUAUAGGGUGGGACAGGAUAG [JR_SV3TOV2_Sub049] (puzzle: Sensor v3, turn-off variant 2) | 443 | 153 | 495 |  |  | 
9 | GCACUGACAGGAUAUACAUGAGGAUCACCCAUGUGACCCUUAUAGUACUCGCGUACAAGUAGAAGGGUCUGUGC [Omei Ex3 Model Bachelor's Dilema v31] (Eterna round: R97, puzzle: Exclusion 3) |  |  |  | 382 | 107 | 
10 | UGAUCUAGCGGAGGAUAUACAUGAGGAUCACCCAUGUAGACUCCAUGACCGUAGUCGUGGAGCGUGUAGAAGGCCGCUAGAUCU [JL ENG2 3.72] (Eterna round: R96, puzzle: Exclusion NG 2) |  |  |  | 19.2 | 12.2 | 10.3
11 | AUUGAUGUUGAGGAUAUGCUUUUAUUUAUAAUAGCAGAAGGCGAUACAUGAGGAUCACCCAUGUUCAUGGUUUU [JR_E6_Sub096] (puzzle: Exclusion 6) |  | 24.5 |  |  |  | 
12 | AAUGGGCAAGCAUGAUCCCACAUGAGGAUCACCCAUGUGUUCGUCUUAUAGGCUGCUGAGGCUUUUGCCUCGGUGGC [LRO Sensor-off var1-03 loose mod of D91 from Mat747] (Eterna round: R97, puzzle: Sensor, turn-off variant 1) |  |  |  | 850 | 1370 | 
13 | AACAAACAUGAGGAUCACCCAUGUCAGGAUAUGCACAAACAAACAAACAAACAAGCAAGCAGAAGGGACACAAC [Amethyst 89] (Eterna round: R96, puzzle: Exclusion 1) |  |  |  | 34.7 | 24.8 | 22.4
14 | GCAGCAUAGUGUAAUAAACACAUACAUGAGGAUCACCCAUGUGAGGAUAUGGACUGGAUUACAGUCCAGAAGGCACAAAGCUGC [Zipper Style 1] (Eterna round: R96, puzzle: Exclusion NG 3) |  |  |  | 18.7 | 17.8 | 15.9
15 | AAAUACAAGCAAAGAUCUUACAUGAGGAUCACCCAUGUGCUCGUCUUGUAAAGUACUAUCACGAAAGUGAUAGUACA [Sensor 3, v1 - 30] (puzzle: Sensor v3, turn-off variant 1) | 23.1 | 98.8 | 20.4 |  |  | 
16 | ACGAAACAUGAGGAUCACCCAUGUGAGGAUAUGUAAAGACUAGACAAAGAACAGAAAAACAGAAGGCACACAGA [JR_Exclusion1_Sub002] (puzzle: Exclusion 1) | 28 | 19.7 | 26.7 |  |  | 
17 | UACAGUCGAGGAUAUACGAUCGUGCUUCGGCACGUAAGAUCACAUGAGGAUCACCCAUGUAGAAGGCGACUGUA [Mod 9 - Jieux - Exclusion 2] (Eterna round: R97, puzzle: Exclusion 2) |  |  |  | 226 | 35.1 | 

Row | Sequence | apparent KD of MS2 coat protein [1] [nM] | apparent KD of MS2 coat protein [2] [nM] | apparent KD of MS2 coat protein [3] [nM] | apparent KD of MS2 coat protein (input ligand: FMN 200 uM) [nM] | apparent KD of MS2 coat protein (input ligand: none) [nM] | apparent KD of MS2 coat protein [4] [nM]
18 | AAACAGGAUGUAAGGAUAUCCAAGUGCUAAGCACGGGAGAAGGUACAUGAGGAUCACCCAUGUGGUCUUCCAAU [Quesardi] (Eterna round: R97, puzzle: Brourd's mod of Exclusion 4) |  |  |  | 253 | 120 | 
19 | GUGUUUGAUGAGGAUAUCGAUGUGGGUAUAUAGCGAGAAGGCAUUACAUGAGGAUCACCCAUGUAGUGUGGGUU [JR_Ex6_Sub024] (Eterna round: R97, puzzle: Exclusion 6) |  |  |  | 33.3 | 35.6 | 
20 | UUCCUCAUAACAUGAGGAUCACCCAUGUAUUAUUUGAUAACUGAGGAUAUACUUUUAAUGUUUAUGUAGAAGGCAGAUACAGUU [JR_ExcNG3_Sub016] (Eterna round: R96, puzzle: Exclusion NG 3) |  |  |  |  |  | 89.6
21 | UCGUGUUUAGAGGAUAUAUUAAUAUUUUAAACAAUAGAAGGCUAAACAUGAGGAUCACCCAUGUAUUUGGUUUU [JR_Ex6_Sub055] (Eterna round: R97, puzzle: Exclusion 6) |  |  |  | 46.6 | 233 | 
22 | GUUAUCGGAGGAUAUACAUGAGGAUCACCCAUGUGCCAGUAUGUACUAAUCCUUUAGAGUAGAAGGUCGAUAGG [Eternabot (L1) Solution 72] (Eterna round: R97, puzzle: Exclusion 3) |  |  |  | 198 | 118 | 
23 | AUAAAUGAGGAGGAUAUCGAAUCGGAAACGAUUCGAGAAGGCCUAACAUGAGGAUCACCCAUGUUCCUUAAAUA [Mat - Exclusion 6 - Eli Mod - D64] (puzzle: Exclusion 6) |  | 25.3 |  |  |  | 
24 | AGAGUAGGCAUAGGAUAUCCGAAAGGAAGUGUAGGAGAAGGAUGUCGAGACAUGAGGAUCACCCAUGUGAUGCUUAGUCGAAAG [PowerStrip EXNG 1.18] (Eterna round: R96, puzzle: Exclusion NG 1) |  |  |  | 359 | 50.8 | 61.1
25 | UCUGUUGAAGGAUAUGCGUAACGAGUUACGGCUCGAGGUCUACAUGAGGAUCACCCAUGUAGAAGGUCAUCAGA [EX2 #70] (Eterna round: R97, puzzle: Exclusion 2) |  |  |  | 15.8 | 15.1 | 
26 | GAGCUAUGAGGAUAUGCAUAUAUGCGGUUUCGUGUGGUACUACAUGAGGAUCACCCAUGUAGAAGGCGUGGCUG [JL-ex2-2.06 mat747 mod] (puzzle: Exclusion 2) |  | 14 |  |  |  | 
27 | AGAUCCUGAGUCAGGAUAUAGAGACGGAAGUCGGGCUAGAAGGGACAUGAGGAUCACCCAUGUGGGUUCGUGCC [Lalaarveti] (puzzle: Brourd's mod of Exclusion 4) | 33.5 | 16.3 | 23 |  |  | 
28 | CUUGGAGAGGUAGGAUAUUUAUAUUCACACUCUGAUUCUUGUACACAUGAGGAUCACCCAUGUAUAGAGAAGGACUGCCAAGAG [Eternabot solution 48] (Eterna round: R96, puzzle: Exclusion NG 2) |  |  |  | 21.6 | 21.3 | 17.2
29 | UAAUUAAGUGUGAGGAUAUGCUGGUCCUUGGAUCAGCAGAAGGCACAUGAGGAUCACCCAUGUAAUAUAUUUAU [JL bmx4 3.11] (puzzle: Brourd's mod of Exclusion 4) |  | 81.9 |  |  |  | 
30 | AUAUCCAGAGGAUAUCCGCACGGACACAUGAGGAUCACCCAUGUUUUCAUGAACGUUGCCGGAGAAGGCUGAGGAA [Eternabot (Original) Solution 10] (Eterna round: R97, puzzle: Exclusion 5) |  |  |  | 79.7 | 69.7 | 
31 | ACAUGAGGAUCACCCAUGUACGGUUGGUUUUCUCCGGCUGUUGAGGAUAUAGUCCGGUAUCCGCGCUAGAAGGUGAGGGUUGGC [Aenatbe mod 11] (Eterna round: R96, puzzle: Exclusion NG 3) |  |  |  | 104 | 87.6 | 74.6
32 | CGGUCCCAUGUGAGGAUAUCGGAGCGAAAAUACUGCGAGAAGGUACAUGAGGAUCACCCAUGUCUCCUAUUGCC [Entiedxebe] (puzzle: Brourd's mod of Exclusion 4) |  | 15.2 |  |  |  | 
33 | AUAAUAAAGGAGGAUAUCGAUUCGGAAACGAAUCGAGAAGGUCUAACAUGAGGAUCACCCAUGUUCCUCAAAUA [Mat - Exclusion 6 - Eli Mod - D51] (puzzle: Exclusion 6) | 58 | 35.6 | 27.9 |  |  | 
34 | UACAUGAGGAUCACCCAUGUUUUGUCGUGUAUGGUAUUUAUCUAGGAUAUCAAUCUAUGUAUUUAUGAGAAGGAGAAUAUUAAU [JMF's solution 51] (Eterna round: R96, puzzle: Exclusion NG 3) |  |  |  |  |  | 31

— the supplement of paper PMC9170038
